± gives the uncertainty stated by the source.
Assay: self-splicing fitness, log relative to wild type (ln ratio); higher = more splicing; Tetrahymena group I intron in knt gene, E. coli kanamycin selection, DiMSum; sequences stand for … in CUCUCU…GGAGGGAAAAGUUAUCAGGCAUGCACCUGGUAGCUAGUCUUUAAACCAAUAGAUUGCAUCGGUUUAAAAGGCAAGACCGUCAAAUUGCGGGAAAGGGGUCAACAGCCGUUCAGUACCAAGUCUCAGGGGAAACUUUGAGAUGGCCUUGCAAAGGGUAUGGUAAUAAGCUGACGGACAUGGUCCUAACCACGCAGCCAAGUCCUAAGUCAACAGAUCUUCUGUUGAUAUGGAUGCAGUUCACAGACUAAAUGUCGGUCGGGGAAGAUGUAUUCUUCUCAUAAGAUAUAGUCGGACCUCUCCUUAAUGGGAGCUAGCGGAUGAAGUGAUGCAACACUGGAGCCGCUGGGAACUAAUUUGUAUGCGAAAGUAUAUUGAUUAGUUUUGGAGUACUCGUGGUCG
Summary of the method: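 DiMSum derived fitness as the error-weighted combination of fold changes across replicates, kanamycin versus no kanamycin, normalised to wild type. E. coli BL21(DE3) held the library, which randomised all eight P1ex-region intron nucleotides within the knt kanamycin-resistance gene on pET-22b(+). Six replicate transformations grew overnight at 37°C or 30°C on LB agar with or without 25 μg/mL kanamycin, also containing 100 μg/mL carbenicillin, 50 μM IPTG and 0.2% rhamnose, and pooled colonies were amplicon-sequenced on an Illumina HiSeq 2500.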

Sequence | self-splicing fitness (ln) (30 °C) | self-splicing fitness (ln) (37 °C)
UUACAGCAAUAUUACGUGUC | -3.93 ± 0.17 | -3.21 ± 0.21
UUACAGCAAUAUUACGUUCC | -3.34 ± 0.26 | -2.22 ± 0.46
UUACAGCAAUAUUACGUUGG | -2.6 ± 0.12 | -1.69 ± 0.13
UUACAGCAAUAUUACGUUGU | -2.98 ± 0.13 | -2.57 ± 0.16
UUAGAGCAAUAUUACGAAAU | -3.77 ± 0.34 | -3.04 ± 0.47
UUAGAGCAAUAUUACGACCC | -2.63 ± 0.49 | -1.74 ± 0.49
UUAGAGCAAUAUUACGACUA | -1.13 ± 0.31 | -0.676 ± 0.32
UUAGAGCAAUAUUACGAGUU |  | -2.05 ± 0.39
UUAGAGCAAUAUUACGAUGA | 0.174 ± 0.1 | 0.371 ± 0.14
UUAGAGCAAUAUUACGAUUA | -1.07 ± 0.11 | -0.181 ± 0.13
UUAGAGCAAUAUUACGAUUC | -2.62 ± 0.25 | -2.44 ± 0.35
UUAGAGCAAUAUUACGCAGU | -3.64 ± 0.32 | -3.17 ± 0.47
UUAGAGCAAUAUUACGCCAG | -0.402 ± 0.15 | 0.228 ± 0.23
UUAGAGCAAUAUUACGCCCA | -1.04 ± 0.19 | -0.676 ± 0.3
UUAGAGCAAUAUUACGCUAA | -1.93 ± 0.24 | -0.588 ± 0.36
UUAGAGCAAUAUUACGCUUU | -3.62 ± 0.37 | -2.02 ± 0.32
UUAGAGCAAUAUUACGGAAU | -3.79 ± 0.29 | -2.81 ± 0.25
UUAGAGCAAUAUUACGGCCG | -0.608 ± 0.15 | -0.234 ± 0.23
UUAGAGCAAUAUUACGGCGU | -1.73 ± 0.14 | -1.12 ± 0.22
UUAGAGCAAUAUUACGGCUA | -0.0336 ± 0.14 | 0.4 ± 0.17
UUAGAGCAAUAUUACGGGCU | -2.53 ± 0.32 | 
UUAGAGCAAUAUUACGUAUC | -3.29 ± 0.48 | -1.22 ± 0.34
UUAGAGCAAUAUUACGUAUU | -5.06 ± 0.45 | -2.91 ± 0.35
UUAGAGCAAUAUUACGUCGU | -3.46 ± 0.4 | -1.26 ± 0.21
UUAGAGCAAUAUUACGUCUG | -0.606 ± 0.11 | -0.672 ± 0.12

Sequence | self-splicing fitness (ln) (30 °C) | self-splicing fitness (ln) (37 °C)
UUAGAGCAAUAUUACGUGUG | -1.27 ± 0.09 | -1.11 ± 0.14
UUAGAGCAAUAUUACGUUCA | -0.27 ± 0.14 | -0.536 ± 0.17
UUAGAGCAAUAUUACGUUUC | -3.04 ± 0.2 | 
UUAUAGCAAUAUUACGAAAG | -3.47 ± 0.37 | -2.69 ± 0.38
UUAUAGCAAUAUUACGAAGU | -3.61 ± 0.45 | -2.44 ± 0.28
UUAUAGCAAUAUUACGACUC | -1.94 ± 0.19 | -1.94 ± 0.24
UUAUAGCAAUAUUACGAGAG |  | -0.556 ± 0.26
UUAUAGCAAUAUUACGAGGU |  | -2.14 ± 0.37
UUAUAGCAAUAUUACGAUAG | -0.194 ± 0.16 | -0.527 ± 0.16
UUAUAGCAAUAUUACGCACG | -1.18 ± 0.15 | -0.14 ± 0.18
UUAUAGCAAUAUUACGCGAU | -2.8 ± 0.37 | -2.23 ± 0.46
UUAUAGCAAUAUUACGCGCC | -1.96 ± 0.23 | -2.14 ± 0.3
UUAUAGCAAUAUUACGCUCA | -0.877 ± 0.38 | -1.09 ± 0.42
UUAUAGCAAUAUUACGCUCG | 0.392 ± 0.25 | 0.206 ± 0.22
UUAUAGCAAUAUUACGGAAG | -2.21 ± 0.26 | -1.77 ± 0.26
UUAUAGCAAUAUUACGGAUG | -2.85 ± 0.16 | -1.09 ± 0.15
UUAUAGCAAUAUUACGGCAA | -0.0783 ± 0.11 | -0.348 ± 0.1
UUAUAGCAAUAUUACGGCUG | 0.0456 ± 0.07 | 0.442 ± 0.1
UUAUAGCAAUAUUACGUACG | -1.03 ± 0.12 | -0.0555 ± 0.17
UUAUAGCAAUAUUACGUAGG | -1.75 ± 0.14 | -0.198 ± 0.17
UUAUAGCAAUAUUACGUAGU | -3.03 ± 0.24 | -2.71 ± 0.4
UUAUAGCAAUAUUACGUCCA | -1.54 ± 0.26 | -0.846 ± 0.29
UUAUAGCAAUAUUACGUCCU | -3.3 ± 0.34 | -1.78 ± 0.27
UUAUAGCAAUAUUACGUCUC | -3.25 ± 0.33 | -2.13 ± 0.3
UUAUAGCAAUAUUACGUGAA | -1.91 ± 0.18 | -0.849 ± 0.17

Sequence | self-splicing fitness (ln) (30 °C) | self-splicing fitness (ln) (37 °C)
UUAUAGCAAUAUUACGUGGG | -3.41 ± 0.26 | -2.15 ± 0.23
UUCAAGCAAUAUUACGAAAA | -0.341 ± 0.15 | -0.222 ± 0.18
UUCAAGCAAUAUUACGAAGA | -2.03 ± 0.19 | -1.26 ± 0.19
UUCAAGCAAUAUUACGACCU | -2.33 ± 0.27 | -0.916 ± 0.18
UUCAAGCAAUAUUACGACUA | 0.15 ± 0.12 | 0.446 ± 0.14
UUCAAGCAAUAUUACGAGGA | -2.22 ± 0.14 | -1.43 ± 0.13
UUCAAGCAAUAUUACGCAAA | -1.96 ± 0.16 | -0.991 ± 0.15
UUCAAGCAAUAUUACGCACU | 0.0955 ± 0.12 | -0.66 ± 0.14
UUCAAGCAAUAUUACGCAGC | -1.85 ± 0.16 | -2.72 ± 0.31
UUCAAGCAAUAUUACGCAGU | -3.44 ± 0.27 | -3.62 ± 0.42
UUCAAGCAAUAUUACGCAUA | -1.24 ± 0.096 | -0.0175 ± 0.1
UUCAAGCAAUAUUACGCCCA | -0.837 ± 0.24 | 0.3 ± 0.21
UUCAAGCAAUAUUACGCCGU | -2.25 ± 0.2 | -1.46 ± 0.19
UUCAAGCAAUAUUACGCCUC | -1.59 ± 0.14 | -1.34 ± 0.16
UUCAAGCAAUAUUACGGAAA | -1.83 ± 0.11 | -1.12 ± 0.1
UUCAAGCAAUAUUACGGAAC | -3 ± 0.27 | 
UUCAAGCAAUAUUACGGAGU | -3.82 ± 0.27 | -2.56 ± 0.23
UUCAAGCAAUAUUACGGCAU | -1.71 ± 0.065 | -0.546 ± 0.075
UUCAAGCAAUAUUACGGCUG | -2.62 ± 0.15 | -1.52 ± 0.2
UUCAAGCAAUAUUACGGGAC | -2.58 ± 0.16 | -2.43 ± 0.28
UUCAAGCAAUAUUACGGUAA | -0.679 ± 0.097 | 0.0151 ± 0.1
UUCAAGCAAUAUUACGUCUA | -0.495 ± 0.09 | 0.538 ± 0.081
UUCAAGCAAUAUUACGUGUC | -2.84 ± 0.11 | -2.45 ± 0.14
UUCCAGCAAUAUUACGACUU | -1.5 ± 0.18 | -0.653 ± 0.2
UUCCAGCAAUAUUACGAGUA | -1.12 ± 0.07 | 0.0282 ± 0.078

Sequence | self-splicing fitness (ln) (30 °C) | self-splicing fitness (ln) (37 °C)
UUCCAGCAAUAUUACGCACC | -2.48 ± 0.3 | -1.55 ± 0.26
UUCCAGCAAUAUUACGCCAC |  | -1.86 ± 0.34
UUCCAGCAAUAUUACGGACU | -2.17 ± 0.14 | -0.74 ± 0.15
UUCCAGCAAUAUUACGGCCU | -4.05 ± 0.42 | -1.58 ± 0.17
UUCCAGCAAUAUUACGGGGU | -3.02 ± 0.12 | -2.81 ± 0.17
UUCCAGCAAUAUUACGGUAU | -2.13 ± 0.11 | -1.5 ± 0.12
UUCCAGCAAUAUUACGGUCA | -0.23 ± 0.084 | 0.239 ± 0.1
UUCCAGCAAUAUUACGGUCG | -0.395 ± 0.081 | 0.623 ± 0.11
UUCCAGCAAUAUUACGGUGG | -3.89 ± 0.27 | -3.15 ± 0.24
UUCCAGCAAUAUUACGGUUA | 0.496 ± 0.085 | 0.423 ± 0.087
UUCCAGCAAUAUUACGUAAG | -1.42 ± 0.066 | -0.28 ± 0.095
UUCCAGCAAUAUUACGUAAU | -2.36 ± 0.11 | -0.639 ± 0.12
UUCCAGCAAUAUUACGUAUA | -1.01 ± 0.17 | -1.26 ± 0.16
UUCCAGCAAUAUUACGUCAA | -1.3 ± 0.1 | -0.233 ± 0.12
UUCCAGCAAUAUUACGUGAU | -1.08 ± 0.044 | -0.294 ± 0.063
UUCCAGCAAUAUUACGUUUG | -4.67 ± 0.46 | -2.83 ± 0.24
UUCGAGCAAUAUUACGACAA | -0.778 ± 0.23 | 0.45 ± 0.23
UUCGAGCAAUAUUACGACCU | -1.7 ± 0.43 | 1.25 ± 0.38
UUCGAGCAAUAUUACGACGC |  | -2.67 ± 0.48
UUCGAGCAAUAUUACGAGAC | -0.119 ± 0.49 | 
UUCGAGCAAUAUUACGAGUU | -1.62 ± 0.18 | -0.549 ± 0.17
UUCGAGCAAUAUUACGAUGG | -3.47 ± 0.26 | -1.45 ± 0.33
UUCGAGCAAUAUUACGCAAU |  | -2.13 ± 0.43
